From patent US20260217843A1 (APOGEE THERAPEUTICS, published 2026)
Where a chain is given by its changes, count along the chain named.

T1: hOX40L added as soluble protein in cell assays (human, UniProt P23510 51-183, limits assumed)
T1 sequence: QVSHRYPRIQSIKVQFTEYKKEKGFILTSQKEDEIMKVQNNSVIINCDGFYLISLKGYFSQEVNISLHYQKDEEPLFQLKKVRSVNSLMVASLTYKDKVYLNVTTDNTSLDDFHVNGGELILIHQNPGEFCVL

T2: biotinylated hOX40L (human, UniProt P23510 51-183, limits assumed, biotinylated (sites not given))
T2 construct: construct not described
T2 sequence: T1 sequence

T3: hOX40L on hOX40L-expressing CHO cells (human, UniProt P23510 1-183)
T3 construct: also called cell surface OX40L
T3 sequence: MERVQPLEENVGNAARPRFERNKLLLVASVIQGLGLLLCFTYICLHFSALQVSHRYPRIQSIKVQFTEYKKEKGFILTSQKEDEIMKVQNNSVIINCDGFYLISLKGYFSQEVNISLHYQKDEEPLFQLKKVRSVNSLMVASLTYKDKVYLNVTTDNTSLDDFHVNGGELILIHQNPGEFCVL

T4: Recombinant Human OX40L Protein, His Tag (Acro Cat. IL3-H52H4) (human, UniProt P23510 51-183)
T4 construct: Bought His-tagged protein; also called hOX40L
T4 sequence: T1 sequence

T5: human CD32a 167H (human, UniProt P12318 36-218)
T5 construct: numbering not explained
T5 sequence (looked up): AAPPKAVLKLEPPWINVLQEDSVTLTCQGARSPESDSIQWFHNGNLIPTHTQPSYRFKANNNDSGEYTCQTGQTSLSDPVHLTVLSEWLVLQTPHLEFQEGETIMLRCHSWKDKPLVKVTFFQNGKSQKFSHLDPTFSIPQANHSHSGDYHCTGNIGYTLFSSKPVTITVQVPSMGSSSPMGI

T6: human CD32a 167R (human, UniProt P12318 36-218)
T6 construct: numbering not explained
T6 sequence (looked up): T5 sequence (looked up) with H132R

T7: human CD32b (human, UniProt P31994 46-217)
T7 sequence (looked up): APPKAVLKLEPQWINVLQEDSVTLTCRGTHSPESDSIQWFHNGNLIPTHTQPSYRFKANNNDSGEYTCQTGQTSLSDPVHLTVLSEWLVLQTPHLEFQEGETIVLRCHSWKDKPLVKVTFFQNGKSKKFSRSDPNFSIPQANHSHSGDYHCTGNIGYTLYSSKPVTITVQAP

T8: Recombinant Cynomolgus OX40L Protein, His Tag (SINO BIOLOGICAL, Cat. 11057-C07H) (cynomolgus, UniProt G7NVH7 51-183)
T8 construct: Bought protein
T8 sequence: T1 sequence with R5Q, K23E

B1: anti-hOX40L antibody clone 105 (antibody, human IgG1, kappa, L234A L235A)
heavy: EVRLVESGGGLVQPGGSLRLSCAASGFTFSSYAMTWVRQAPGKGLEWVSLISGSGGLTKYADSVKGRFTISRDNSKKTLYLQMNSLRAEDTAVYYCAKDEGLTTGEYWGQGTLVTVSSASTKGPSVFPLAPSSKSTSGGTAALGCLVKDYFPEPVTVSWNSGALTSGVHTFPAVLQSSGLYSLSSVVTVPSSSLGTQTYICNVNHKPSNTKVDKKVEPKSCDKTHTCPPCPAPEAAGGPSVFLFPPKPKDTLYITREPEVTCVVVDVSHEDPEVKFNWYVDGVEVHNAKTKPREEQYNSTYRVVSVLTVLHQDWLNGKEYKCKVSNKALPAPIEKTISKAKGQPREPQVYTLPPSRDELTKNQVSLTCLVKGFYPSDIAVEWESNGQPENNYKTTPPVLDSDGSFFLYSKLTVDKSRWQQGNVFSCSVMHEALHNHYTQKSLSLSPG
light: DIQMTQSPSSLSASVGDRVTITCRASQGIRNDLGWYQQKPGKAPKRLIYATSSFQSGVPSRFSGSGSGTEFTLTISSLQPEDFATYYCLQHNSYPFTFGPGTKVDVKRTVAAPSVFIFPPSDEQLKSGTASVVCLLNNFYPREAKVQWKVDNALQSGNSQESVTEQDSKDSTYSLSSTLTLSKADYEKHKVYACEVTHQGLSSPVTKSFNRGEC
B2: anti-hOX40L antibody clone 114 (antibody, human IgG1, kappa, L234A L235A)
heavy: B1 heavy with R3Q, L4V, S31N, A40S, Y80F, V93A, A97V, L113Q
light: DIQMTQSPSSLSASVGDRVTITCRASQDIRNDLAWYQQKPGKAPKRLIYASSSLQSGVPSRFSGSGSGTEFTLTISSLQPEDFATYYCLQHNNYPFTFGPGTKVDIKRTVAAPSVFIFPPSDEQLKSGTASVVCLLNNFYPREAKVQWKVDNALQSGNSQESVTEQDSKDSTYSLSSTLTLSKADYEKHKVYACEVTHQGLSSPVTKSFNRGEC

How the values were obtained:
[1] = target: T1, hOX40L added as soluble protein in cell …; test: cell-based or functional assay
[2] = target: T2, biotinylated hOX40L; test: blocking ELISA: biotinylated hOX40L preincubated with titrated antibody, added to coated hOX40-Fc, Extravidin-HRP
[3] = target: T3, hOX40L on hOX40L-expressing CHO cells; test: flow cytometry on hOX40L-expressing CHO cells, gMFI, nonlinear regression
Protocol: Nonlinear regression was performed on geometric mean fluorescence intensity (gMFI) values to determine EC50 values (FIG. 1, TABLE 8).

[4] = target: cynomolgus FcRn (cynomolgus, UniProt Q8SPV9 24-297; Q8SPW0 21-119); test: SPR (Biacore 8K+), antibody captured by anti-human kappa, cynomolgus FcRn injected, pH 5.8; pH 5.8
Protocol: (§1) Briefly, a CM5 Series S sensor chip functionalized with anti-human kappa antibody was used to capture antibodies at 5 μg/mL. […] The chip was regenerated with 10 mM glycine pH 1.5 and 10 mM NaOH between runs.

[5] = target: T9, C1q; test: SPR (Biacore 8K+), antibody captured by anti-human IgG Fc, C1q injected at 25 nM, mean response
T9 construct: also called Clq
Protocol: (§2) Briefly, a CM5 Series S sensor chip functionalized with anti-human IgG Fc antibody was used to capture antibodies at 5 μg/mL. […] The chip was regenerated with 10 mM glycine pH 1.5 and 10 mM NaOH between runs.

[6] = target: T4, Recombinant Human OX40L Protein, His …; test: SPR (Biacore 8K), antibody captured, human OX40L injected, 1:1 fit
Protocol: (§3) Samples were injected in a multi-cycle manner over freshly captured mAb, by regenerating the capture surfaces with injection of glycine pH 1.5 for 30 sec at a flow rate of 30 μL/min. The data was processed and analyzed with Biacore Insight Evaluation Software Version 2.0.15.12933 (GE Healthcare) as follows. […] The responses from the two buffer blank injections were then subtracted from the reference subtracted data (2-1) to yield double-referenced data, which were fit to an 1:1 binding model to determine the apparent association (ka) and dissociation rate constants (kd). Their ratio provided the apparent equilibrium dissociation constant or affinity constant (KD=kd/ka).

[7] = target: T10, human CD16a 176V (human, UniProt P08637 17-208); test: SPR (Biacore 8K+), antibody captured by anti-human IgG Fc, receptor injected
T10 construct: Allelic variant named only as '176V'; numbering not explained
Protocol: as §2

[8] = target: T5, human CD32a 167H; test: as above
Protocol: as §2

[9] = target: T6, human CD32a 167R; test: as above
Protocol: as §2

[10] = target: T11, human CD16a 176F (human, UniProt P08637 17-208); test: as above
T11 construct: numbering not explained
Protocol: as §2

[11] = target: human CD64 (human, UniProt P12314 16-288); test: as above
Protocol: as §2

[12] = target: T7, human CD32b; test: as above
Protocol: as §2

[13] = target: human CD16b (human, UniProt O75015 17-200, limits assumed); test: as above
Protocol: as §2

[14] = target: T8, Recombinant Cynomolgus OX40L Protein, …; test: SPR (Biacore 8K), antibody captured, cynomolgus OX40L injected, 1:1 fit
Protocol: as §3

[15] = target: T1, hOX40L added as soluble protein in cell …; test: cell-based or functional assay; remark: listed apart in the source
[16] = target: human FcRn (human, UniProt P55899 24-297; P61769 21-119); test: SPR (Biacore 8K+), antibody captured by anti-human kappa, human FcRn injected, pH 5.8; pH 5.8
Protocol: as §1

Chain of human FcRn (P55899 24-297 limits assumed, form in doubt, chain 1 of 2): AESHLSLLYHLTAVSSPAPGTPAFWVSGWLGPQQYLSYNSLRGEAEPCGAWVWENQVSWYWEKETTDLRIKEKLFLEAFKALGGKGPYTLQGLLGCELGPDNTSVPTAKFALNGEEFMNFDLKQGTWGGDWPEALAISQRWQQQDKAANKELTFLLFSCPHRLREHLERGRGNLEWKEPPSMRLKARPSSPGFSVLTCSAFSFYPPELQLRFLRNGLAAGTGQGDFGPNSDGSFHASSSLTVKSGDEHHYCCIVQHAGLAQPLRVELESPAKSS
Chain of human FcRn (P61769 21-119 limits assumed, form in doubt, chain 2 of 2): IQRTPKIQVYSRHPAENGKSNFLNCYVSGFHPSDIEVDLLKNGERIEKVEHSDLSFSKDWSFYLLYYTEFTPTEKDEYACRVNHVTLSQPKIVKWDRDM
Chain of cynomolgus FcRn (Q8SPV9 24-297 limits assumed, chain 1 of 2): as the sequence (P55899 24-297 limits assumed, form in doubt, chain 1 of 2) above, with N39D, E44Q, G99S, S189G, S190N, L217M, S269T counted along it
Chain of cynomolgus FcRn (Q8SPW0 21-119 limits assumed, chain 2 of 2): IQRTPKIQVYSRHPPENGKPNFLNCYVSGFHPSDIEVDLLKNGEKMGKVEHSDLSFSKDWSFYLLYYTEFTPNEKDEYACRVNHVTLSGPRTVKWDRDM
T9 sequence (P02745 23-245, chain 1 of 3): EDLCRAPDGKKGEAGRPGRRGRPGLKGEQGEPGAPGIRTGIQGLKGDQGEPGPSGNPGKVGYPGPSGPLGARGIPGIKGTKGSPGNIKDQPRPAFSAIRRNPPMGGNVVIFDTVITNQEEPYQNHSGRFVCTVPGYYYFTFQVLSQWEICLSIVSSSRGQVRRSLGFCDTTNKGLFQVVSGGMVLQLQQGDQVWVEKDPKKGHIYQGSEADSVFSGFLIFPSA
T9 sequence (P02746 28-253, chain 2 of 3, further chain): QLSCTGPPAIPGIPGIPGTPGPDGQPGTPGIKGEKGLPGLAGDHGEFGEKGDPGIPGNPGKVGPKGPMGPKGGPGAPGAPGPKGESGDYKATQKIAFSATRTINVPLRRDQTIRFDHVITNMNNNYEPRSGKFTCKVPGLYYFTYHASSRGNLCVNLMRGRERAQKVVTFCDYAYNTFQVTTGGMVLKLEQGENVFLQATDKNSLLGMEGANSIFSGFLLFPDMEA
T9 sequence (P02747 29-245, chain 3 of 3, further chain): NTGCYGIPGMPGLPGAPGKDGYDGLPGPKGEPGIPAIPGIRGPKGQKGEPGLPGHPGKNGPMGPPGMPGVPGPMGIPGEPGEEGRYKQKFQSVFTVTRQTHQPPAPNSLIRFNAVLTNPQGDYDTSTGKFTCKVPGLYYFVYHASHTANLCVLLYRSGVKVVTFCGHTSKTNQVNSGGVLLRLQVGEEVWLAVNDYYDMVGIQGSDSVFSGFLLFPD
T10 sequence (P08637 17-208 F176V limits assumed): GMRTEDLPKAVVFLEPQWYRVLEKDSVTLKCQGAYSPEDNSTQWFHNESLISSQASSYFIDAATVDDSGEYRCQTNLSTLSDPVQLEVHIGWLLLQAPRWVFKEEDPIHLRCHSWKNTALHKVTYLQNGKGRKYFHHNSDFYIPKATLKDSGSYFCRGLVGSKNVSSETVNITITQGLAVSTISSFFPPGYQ
Chain of human CD16b (O75015 17-200 limits assumed): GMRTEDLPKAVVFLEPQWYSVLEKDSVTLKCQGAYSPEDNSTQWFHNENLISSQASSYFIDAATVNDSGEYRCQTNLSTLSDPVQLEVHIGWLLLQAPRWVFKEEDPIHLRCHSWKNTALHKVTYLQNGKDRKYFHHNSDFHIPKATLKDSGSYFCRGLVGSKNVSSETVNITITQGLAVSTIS
Chain of human CD64 (P12314 16-288 limits assumed): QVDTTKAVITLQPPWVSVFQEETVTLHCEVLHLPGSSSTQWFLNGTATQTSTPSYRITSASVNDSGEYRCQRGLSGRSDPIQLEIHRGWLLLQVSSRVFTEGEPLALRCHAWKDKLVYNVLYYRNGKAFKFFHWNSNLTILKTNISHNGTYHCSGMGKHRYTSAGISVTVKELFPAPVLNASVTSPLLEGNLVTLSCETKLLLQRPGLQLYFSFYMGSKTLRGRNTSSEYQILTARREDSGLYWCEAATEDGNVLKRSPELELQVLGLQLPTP
T11 sequence (P08637 17-208 limits assumed): as the sequence (P08637 17-208 F176V limits assumed) above, with V160F counted along it

Binder	IC50, luminescence (RLU), hOX40 reporter cells with 50 ng/mL hOX40L [1] [nM]	IC50 [2] [nM]	EC50 [3] [nM]	Kd [4] [nM]	koff [4] [s⁻¹]	kon [4] [M⁻¹ s⁻¹]	RU at 25 nM C1q [5] [RU]	Kd [6] [nM]	koff [6] [s⁻¹]	kon [6] [M⁻¹ s⁻¹]	binding result [7]	binding result [8]	binding result [9]	binding result [10]	binding result [11]	binding result [12]	binding result [13]	Kd [14] [nM]	koff [14] [s⁻¹]	kon [14] [M⁻¹ s⁻¹]	further results
B1	0.852	1.41	3.43	121	0.0453	374000	-3.6	0.141	0.000125	886000	no binding (tested: 6 µM)	no binding (tested: 8 µM)	no binding (tested: 8 µM)	no binding (tested: 6 µM)	no binding (tested: 12.5 nM)	no binding (tested: 18 µM)	no binding (tested: 10 µM)	0.0494	8.09e-05	1.64e+06	Donor 1 IC50, IL-2 release by pre-activated human CD4+ T cells with 20 ng/ml human OX40L [15]: 1.37 nM; Donor 2 IC50, IL-2 release by pre-activated human CD4+ T cells with 20 ng/ml human OX40L [15]: 1.33 nM; Donor 3 IC50, IL-2 release by pre-activated human CD4+ T cells with 20 ng/ml human OX40L [15]: 1 nM; Kd [16]: 145 nM; koff [16]: 0.0442 s⁻¹; kon [16]: 306000 M⁻¹ s⁻¹
B2	0.732	1.12	4.04	117	0.0445	381000	-4.8	0.106	0.000114	1.07e+06	no binding (tested: 6 µM)	no binding (tested: 8 µM)	no binding (tested: 8 µM)	no binding (tested: 6 µM)	no binding (tested: 12.5 nM)	no binding (tested: 18 µM)	no binding (tested: 10 µM)	0.0336	7.73e-05	2.3e+06	Donor 1 IC50, IL-2 release by pre-activated human CD4+ T cells with 20 ng/ml human OX40L [15]: 1.25 nM; Donor 2 IC50, IL-2 release by pre-activated human CD4+ T cells with 20 ng/ml human OX40L [15]: 1.19 nM; Donor 3 IC50, IL-2 release by pre-activated human CD4+ T cells with 20 ng/ml human OX40L [15]: 1.18 nM; Kd [16]: 141 nM; koff [16]: 0.0471 s⁻¹; kon [16]: 333000 M⁻¹ s⁻¹
